Reference: patent US20230016112A1 (IBIO, published 2023)

B1: YU389-A03 (antibody)
scFv: PSQTLSLTCTVSGGSISSGGYYWSWIRQHPGKGLEWIGYIYYSGSTYYNPSLKSRVTISVDTSKNQFSLKLSSVTAADTAVYYCARGNLWSGYYFWGQGTLVTVSSQSVLTQPPSVSAAPGQKVTISCSGSSSNIGNNFVSWYQQVPGTAPKLLTYDSTKRPAGIPDRFSGSKSGTSATLEIAGLQTGDEADYYCGSWDTNLSGYVFGTGTKVTVL
notes: Tested as full-length human IgG1
B2: YU390-B12 (antibody)
scFv: PGRSLRLSCAASGFTFSSYGMHWVRQAPGKGLEWVAVISYDGSNKYYADSVKGRFTISRDNSKNTLYLQMNSLRAEDTAVYYCAKELLEGAFDIWGQGTMVTVSSSYVLTQPPSLSVAPGQTARITCGGDNIETKSVHWYQQRPGQAPVLVVYDDDDRPSGIPERFSGSNSGNTATLTISRVEAGDEADYYCQVWDSSSGHREVFGGGTKLTVL
notes: as for B1
B3: YU398-A11 (antibody)
scFv: PGRSLRLSCAASGFTFSSYGMHWVRQAPGKGLEWVAVISYDGSNKYYADSVKGRFTISRDNSKNTLYLQMNSLRAEDTAVYYCAKGQGDGMDVWGQGTTVTVSSYELTQPPSASGTPGQRVTISCSGSSSNVGSRTVSWFQQLPGTAPKLLIYSNNLRPSGVPDRFSGSKSGTSASLAISGLQSEDEADYYCAAWDDSLIGHVFGTGTKVTVV
notes: as for B1
B4: YU400-B07 (antibody)
scFv: PGRSLRLSCAASGFTFSSYGMHWVRQAPGKGLEWVAVISYDGSNKYYADSVKGRFTISRDNSKNTLYLQMNSLRAEDTAVYYCAKGDVNYGMDVWGQGTTVTVSSSYVLTQPPSVSVAPGKTARITCGGNNIGSKSVHWYQQKPGQAPVLVVYDDTDRPSGIPERFSGSNSGNTATLTISRVEAGDEADYYCQVWDSSSDLLWVFGGGTKLAVL
notes: as for B1
B5: YU392-G09 (antibody)
scFv: QVQLVQSGAEVKKPGSSVKVSCKASGGTFSSYAISWVRQAPGQGLEWMGGIIPIFGTANYAQKFQGRVTITADESTSTAYMELSSLRSEDTAVYYCARDGAGNYDILTGDRSEDYYYYYGMDVWGQGTTVTVSSSYELTQPPSASGAPGQRVSISCSGGYSNIGSNTVNWYQQLPGAAPKFLIYSDNQRPSGVPDRFSGSKSGTSASLAISGLQSEDEADYYCATWDDSLNGPVFGGGTKLTVL
notes: as for B1
B6: YU392-H04 (antibody)
scFv: QVQLQESGPGLVKPSGTLSLTCAVSGGSISSSNWWSWVRQPPGKGLEWIGEIYHSGSTNYNPSLKSRVTISVDKSKNQFSLKLSSVTAADTAVYYCARVNYGDYDWYFDLWGRGTLVTVSSQPVLTQPPSASGTPGQRVTISCSGSSSNIGSNFVTWYQQLPGTAPKLLIYSNNQRPSGVSDRFSASKSGTSASLAISRLQSQDEAEYYCAAWDDSLRSYVFGSGTKVTVV
notes: as for B1
B7: YU392-A09 (antibody)
scFv: PGATVKISCKVSGYTFTDYYMHWVQQAPGKGLEWMGLVDPEDGETIYAEKFQGRVTITADTSTDTAYMELSSLRSEDTAVYYCATEGRYGMDVWGQGTTVTVSSQAVLTQPPSVSGTPGQRVTISCSGNNFNIGNNLVYWYQQLPGTAPKLLIYANDERPSGVPDRFSGSKSGTSASLAISGLRSEDDADYYCATWDDSLSGVVFGGGTKLTAL
notes: as for B1
B8: YU397-D01 (antibody)
scFv: PSGTLSLTCAVSGGSISSSNWWSWVRQPPGKGLEWIGEIYHSGSTNYNPSLKSRVTISVDKSKNQFSLKLSSVTAADTAVYYCARARGGRYFDYWGQGTLVTVSSDIVLTQSPSFLSASVGDRVTITCRASQGISTYLAWYQQKPGTAPKVLMYAASTLHSGVPSRFSGSGSGTEFTLTISSLQPEDFAIYYCQQLNGYPTTFGGGTRVEIK
notes: as for B1
B9: YU400-D09 (antibody)
scFv: PGSSVKVSCKASGGTFSSYAISWVRQAPGQGLEWMGGIIPIFGTANYAQKFQGRVTITADESTSTAYMELSSLRSEDTAVYYCARDFNPFSITIFEMDVWGQGTTVTVSSQSVLTQPPSVSAAPGQKVTISCSGSSSNIGNNYVSWYQQLPGTAPKLLIYDNNKRPSGIPDRFSGSKSGTSATLGITGLQTGDEADYYCGTWDSSLSALVFGGGTKLTVL
notes: as for B1
B10: YU392-H02 (antibody)
scFv: QLQLQESGPGLVNLSQTLSLTCTVSGGSISSGGYYWSWIRQHPGKGLEWIGYIYYSGSTYYNPSLKSRVTISVDTSKNQFSLKLSSVTAADTAVYYCARDSSSGPYGMDVWGQGTTVTVSSQSVLTQPPSVSVAPGQTARVTCGGSNIGSQSVHWYQQKPGQAPVLVVYDDYDRPSGIPERFSGSNSGNTATLTITRVDAGDEADYYCQIWDSSSAHVVFGGGTKLTVL
notes: as for B1
B11: YU401-B01 (antibody)
scFv: PGSSVKVSCKASGGTFSSYAISWVRQAPGQGLEWMGGIIPIFGTANYAQKFQGRVTITADESTSTAYMELSSLRSEDTAVYYCAREMYYYYGMDVWGQGTTVTVSSDIVMTQSPSSLSASVGDRVTITCRASQSIITYLNWYQQKPGKVPKLLIYAASSLQSGVPSRFSGSGSGTDFTLTISSLQPEDFATYYCQQSYSTPPTFGQGTKLEIK
notes: as for B1
B12: YU401-G07 (antibody)
scFv: LGRSLRLSCAASGFTFSSYGMHWVRQAPGKGLEWVAVISYDGSNKYYADSVKGRFTISRDNSKNTLYLQMNSLRAEDTAVYYCAKGDVNYGMDVWGQGTTVTVSSSYVLTQPPSVSVAPGQTARISCGGSNIGSKTVNWYRKKAGQAPVLVVYDGRDRPSGIPERFSGSNSGNAATLIISRVEVGDEADYYCQVWDTSGDLHWAFGGGTKLTVL
notes: as for B1
B13: YU392-G12 (antibody)
scFv: QVQLQESGSGLVKPSQTLSLTCAVSGGSISSGGYSWSWIRQPPGKGLEWIGYIYHSGSTYYNPSLKSRVTISVDRSKNQFSLKLSSVTAADTAVYYCARAGYYYGMDVWGQGTTVTVSSDIVMTQTPSSLSASVGDRVAITCQASRNIWSYVNWYQQKPGEAPRLLIYGASTLQRGVPSRFSGSGSGTGFTLTINSLQPEDFATYFCQQSHSTPITFGGGTRVDIK
notes: as for B1
B14: YU403-G05 (antibody)
scFv: PSGDLSLTCDVSGGSISRSNWWIWVRQPPGKGLEWIGEIYHTGSTNYNPSLKRRVTISVDKSKNQFSLNLSSVTAADTAVYYCARGKGSYAFDIWGLGTMVTVSSVLTQPHSVSESPGKTVTISCTGSGGNIARNYVQWYQHRPGRAPSTVIYEDDRRPSGVPDRFSGSTDISSNSASLTISGLKTEDEADYYCQSYDGNNHMVFGGGTRVTVL
notes: as for B1
B15: YU392-B11 (antibody)
scFv: PGATVKISCKVSGYTFTDYYMHWVQQAPGKGLEWMGLVDPEDGETIYAEKFQGRVTITADTSTDTAYMELSSLRSEDTAVYYCAVEGGRAPGTYYYDSSGLAYWGQGTLVTVSSQAGLTQPPSASGTPGQRVTISCSGSSSNIGSNYVYWYQQLPGTAPKLLIYSNNQRPSGVPDRFSGSKSGTSASLAISGLRSEDEADYYCATWDDSLSGVVFGGGTKLTVL
notes: as for B1
B16: YU392-E05 (antibody)
scFv: QVQLQESGPGLVKPSGTLSLTCTVSGGSISSSNWWSWVRQPPGKGLEWIGEIYHSGSTNYNPSLKSRVTISVDKSKNQFSLKLSSVTAADTAVYYCARGVIAAAGTYFDYWGQGTLVTVSSQAVLTQPPSASGTPGQRVTISCSGSRPNVASNSVNWYQQFPGTAPRLLIYSDNQRPSGVPDRFSGSKSGTSASLAISGLQFEDEADYYCETWDDSLRGVVFGGGTKVTVL
notes: as for B1
B17: YU392-E06 (antibody)
scFv: QLQLQESGPGLVKPSGTLSLTCAVSGGSISSSNWWSWVRQPPGKGLEWIGEIYHSGSTNYNPSLKSRVTISVDKSKNQFSLKLSSVTAADTAVYYCARERTHYYYGMDIWGQGTTVTVSSQSVLTQPPSTSGTPGQRVTISCSGSSSNIGSNTVNWYHQLPGTAPRLLIYSNNQRPSGVPDRFSGSKSGTSASLALSGLQSEDEGDYYCAAWDDSLNGYVFGTGTKVTVL
notes: as for B1

Biological target: T1, full-length CD25 (human, UniProt P01589 22-186, limits assumed)
T1 construct: The assays used soluble 'full-length CD25'; also called Hu CD25; IL-2 receptor alpha chain
T1 chain: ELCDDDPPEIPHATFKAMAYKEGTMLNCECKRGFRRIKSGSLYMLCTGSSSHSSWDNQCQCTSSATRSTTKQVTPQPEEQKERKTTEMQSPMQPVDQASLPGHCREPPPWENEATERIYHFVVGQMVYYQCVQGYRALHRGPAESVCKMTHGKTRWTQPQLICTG
Test: Octet biolayer interferometry, human IgG1 against CD25

Binder	Kd
B1	9.55 nM
B2	13.7 nM
B3	12.1 nM
B4	57.8 nM
B5	20.2 nM
B6	9.1 nM
B7	12.4 nM
B8	3.86 nM
B9	54.5 nM
B10	10.6 nM
B11	70.4 nM
B12	15.3 nM
B13	25.7 nM
B14	31.9 nM
B15	65.6 nM
B16	16.1 nM
B17	8.3 nM
